Two proteins from PMC4888458 can be followed below.

Series [1] is described as follows: confocal microscopy of GFP–ALA2 in tobacco epidermal cells. Particulars: glycan lost; control: untagged wild-type ALIS5 with GFP–ALA2.
A short description of series [2]: NBD-PS uptake in yeast, flow cytometry. Particulars: glycan lost; control: wild-type ALIS5 with ALA2. (A flow cytometer gives signals particle by particle.)

B1: ALIS5: N181Q (protein)
parent chain: MSSTAASSTVGGGGSSEISGVKKTSKRPKYSRFTQQELPACKPILTPRWVILTFLVAGVVFIPLGVICLFASQGVVEIVDRYDTDCIPTSSRNNMVAYIQGEGDKICKRTITVTKAMKHPVYVYYQLENFYQNHRRYVKSRNDAQLRSPKEEHDVKTCAPEDNVGGEPIVPCGLVAWSLFNDTYSFSRNSQQLLVNKKGISWKSDRENKFGKNVFPKNFQKGAPIGGGTLNISKPLSEQEDLIVWMRTAALPTFRKLYGKIETDLHAGDTITVLLQNNYNTYSFNGQKKLVLSTTSWLGGRNDFLGIAYLTVGSICLFLAVTFAVLYLVKPRQLGDPSYLSWNRSAGGLQ
In the case of B1, the localisation_or_trafficking entry in series [1] is “abolishes”. For the same protein, the “other: transport activity” value in series [2] was “abolishes”.

B2: ALIS5: N231Q/N181Q (protein)
parent chain: B1 parent chain
With B2, the localisation_or_trafficking result in series [1] was “abolishes”. Moreover, the “other: transport activity” value in series [2] is on record as “abolishes”.
